Assay results: article PMC8040518 (The Journal of Experimental Medicine, 2021)

Target: LGTV E protein (strain TP21) in C-prM-E–transfected HEK-293T cells (Langat virus strain TP21, UniProt Q9IG40)
Assay: cell-based or functional assay

B1: POWV-80 mAb (antibody, V domains shown)
VH: EVKLVESEGGLVQPGSSMKVSCTASGFTFSHYYMAWVRQVPEKGLEWVANINYDGTSTYYLDSLKSRFIISRDNANNILYLQMSSLKSEDTAIYYCAREEGYGNPYPYWYFDVWGTGTTVTVSS
VL: QIVLTQSPAILSASPGEKVTMTCRASSSVSYMHWYQQKPGSSPKSWIYATSNLASGVPTRFSGSGSGTSYSLTISRVEAEDAATYYCQQRSSNPRTFGGGTKLEIK
- EC50 of neutralization of LGTV, FRNT in Vero cells: 10.4 µg/mL
